This is an account of results in patent publication US20230355813A1, “Theranostic Silicon-Fluoride Heteroaromatic Systems and Methods Thereof” (Fuzionaire Diagnostics, Inc., priority 2022, published 2023).

The conditions of series [1]: pH 10. The text has this:
Brief descriptions of each property and the characterization of each property are stated below. • a) Hydrophilicity. Hydrophilicity relates to the strength of being dissolved in or absorbed in aqueous solutions. It denotes a preference for liquids, solutions, or surfaces with a high dipole moment, like water. Lipophilicity denotes a preference for liquids, solutions, or surfaces with a low dipole moment, such as lipid solutions. The more polar the HetSiFA, the less masking of the lipophilicity may be needed in the radiopharmaceutical via introducing cumbersome and lengthy linkers. The hydrophilicity of HetSiFAs is assessed by calculating and/or measuring the octanol/water partition coefficient log P. Log D measures the lipophilicity of ionizable compounds, where the partition is a function of the pH. The reversed-phase HPLC retention times tR can be used to qualitatively compare the polarity of HetSiFAs. • b) Hydrolytic stability. […] At different time points, the substrate is quantified by HPLC UV monitoring. […] The hydrolysis is monitored by HPLC (˜7 timepoints). […] In addition, the stability of compounds can be assessed in rat and human plasma and in microsomes. • c) Radiolabeling. […] The radiolabeling properties of synthesized HetSiFAs can be assessed using low amounts of radioactivity. […]

Series [2] in a line: stability in solution / on storage (observations). It is filed as physicochemical. To be noted: prolonged storage.
A short description of series [3]: ex vivo biodistribution in healthy mice. To be noted: for bone uptake: ex vivo biodistribution, 3 healthy Balb/c female mice, indicates Si-18F bond stability in vivo.
A further series is described as follows: FIG. 26. The text has this: Table printed on a drawing sheet, FIG. 26
The patent's description of the figure: FIG. 26 illustrates HSA binding assay results of HetSiFA compounds in accordance with an embodiment of the invention.
FIG. 26 illustrates human serum albumin (HSA) binding assay results of HetSiFA compounds in accordance with an embodiment. A standard curve can be first established using reference compounds (See, e.g., Valko, K. et al., J. Pharm. Sci. 2003, 92 (11), 2236-2248; Wurzer, A. J. et al., PSMA binding dual mode radiotracer and therapeutic. 2020, WO2020157177A1; the disclosures of which are herein incorporated by reference.) The HSA binding assay results include four HetSiFA theranostic compounds, FTX-164, FTX-165, FTX-168, and FTX-181 (structures shown in FIG. 26), and two therapeutics Lutathera and Lu-NeoB. […] Test condition of the HSA binding assay includes: Column: Chiralpak HSA (100×2.1 mm, 5 μm, Cat. No. HSA5LM-C0004), flow rate: 0.3 mL/min. Mobile phase: A—NH40Ac buffer (50 mM, pH=7), freshly prepared each day; B—isopropanol (HPLC grade); 0-3 min: isocratic 100% A, 0% B; 3-40 min: gradient to 80% A, 20% B; 40-60 min: isocratic 80% A, 20% B. Samples: 9 reference compounds, concentration 0.5 mg/mL in i-PrOH/NH4OAc (50 mM) pH=7, 50:50. […]
First reader's note: HSA % is human serum albumin binding; the structures of the compounds are drawn beside the table on the same sheet.

`COc1ccncc1[Si](F)(C(C)(C)C)C(C)(C)C` [3-(Di-tert-butylfluorosilyl)-4-methoxypyridine]: the “hydrolytic stability compared to phenyl-SiFA” value in series [1] is recorded as “slightly lower hydrolytic stability than phenyl-SiFA”.
Consider `COc1ncccc1[Si](F)(C(C)(C)C)C(C)(C)C` [5-(Di-tert-butylfluorosilyl)-6-methoxypyridine], for which the “hydrolytic stability compared to phenyl-SiFA” value in series [1] is reported as “higher hydrolytic stability than phenyl-SiFA”.
For the compound `CC(C)(C)OC(=O)NCCOCCn1nc(NCC(=O)O)cc1[Si](F)(C(C)(C)C)C(C)(C)C` [PPI-24068, (1-(2-(2-((tert-butoxycarbonyl)amino)ethoxy)ethyl)-5-(di-tert-butylfluorosilyl)-1H-pyrazol-3-yl)glycine], in series [2], the “stability on storage and in basic medium” value is listed as “some instability”.
With “Lu-DOTAGA-^18F-Pyrazole-HetSiFA-PEG12-TATE [^18F-FTX-181]”, in series [3], the bone uptake entry is on record as “less bone uptake”. In addition, in series [3] (healthy Balb/c female mice), the “accumulation in the liver” value is reported as “low” and the “washout from non-targeted organs” value is reported as “washes out from non-targeted organs except for the gallbladder”.
On to “^18F-Pyrazole-HetSiFA-Lu-DOTAGA-TATE [^18F-FTX-165]”, for which the bone uptake entry in series [3] is listed as “Little bone uptake”.
“^18F-Pyridine-HetSiFA-Lu-DOTAGA-TATE [FTX-164]”: in “FIG. 26”, the HSA % worked out at 97.78%.
